Laboratory results as given in patent publication US11111295B2, “Antibody for anti-claudin 18A2 and use thereof” (CAFA THERAPEUTICS LIMITED, priority 2016, dated 2021).

T1: human CLD18A2 (Homo sapiens, UniProt P56856)
T1 construct: expressed in transfected cells
T1 sequence (P56856 1-261 isoform P56856-2): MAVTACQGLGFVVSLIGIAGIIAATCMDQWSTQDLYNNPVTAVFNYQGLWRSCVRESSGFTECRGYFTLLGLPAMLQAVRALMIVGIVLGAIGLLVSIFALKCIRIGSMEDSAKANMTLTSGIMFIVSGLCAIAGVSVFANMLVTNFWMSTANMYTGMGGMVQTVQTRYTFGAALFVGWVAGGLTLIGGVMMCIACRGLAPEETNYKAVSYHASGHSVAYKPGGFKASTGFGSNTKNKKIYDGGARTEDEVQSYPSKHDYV


Columns and labels:
human CLD18A2 [1] = biological target: T1, human CLD18A2; assay: Flow cytometry binding of hybridoma supernatants to HEK293 cells stably transfected with human CLD18A2; details: hybridoma supernatant; most of subclones after two rounds of subcloning; HEK293 transfectants
Text: Individual cells were screened for anti-CLD18A2 monoclonal antibody by flow cytometry, and HEK293 cells (HEK-CLD18A2) stably expressing human CLD18A2 were used for primary screening by flow cytometry using a Guava easyCyte™ HT System instrument. The binding of the antibody to human CLD18A1 and CLD18A2 transformants was then compared by flow cytometry. The instrument used was the Guava easyCyte™ HT System.
After multiple rounds of preparation and screening of hybridomas, the inventors found several antibodies with relatively ideal binding properties.

human CLD18A2 [2] = biological target: T1, human CLD18A2; assay: Flow cytometry binding of scFv_Fc fusion antibody to HEK293 cells stably transfected with human CLD18A2 (EC50); details: scFv fused to human IgG1 Fc portion, read-out: relative binding affinity EC50 value
Protocol: Binding of anti-Claudin 18A2 scFv_Fc fusion antibody to HEK293 cells stably transfected with CLD18A2 was determined by flow cytometry. Experimental data was analyzed using GraphPad Prism and Guava easyCyte™ HT System instrument as described in Example 1 to obtain EC50 value.
Expression vectors of ScFv Fc-form of the two mutants were constructed as described in Example 2, and according to the procedure of Example 2, and the experimental data was analyzed using GraphPad Prism and Guava easyCyte™ HT System instrument to obtain EC50.
The binding activity assay was performed as described in Example 2, and experimental data was analyzed using HEK293 cells (HEK-CLD18A2) stably expressing human CLD18A2, GraphPad Prism and Guava easyCyte™ HT System instrument to obtain EC50, and the results are shown in FIG. 5.
(5) The binding activity was tested, and experimental data was analyzed using HEK293 cells (HEK-CLD18A2) stably expressing human CLD18A2, GraphPad Prism and Guava easyCyte™ HT System instrument, and the results are shown in FIG. 6.
The mutant hu8E5-2I of the humanized antibody hu8E5 was constructed as described in Example 3. Experimental data was analyzed using HEK293 cells (HEK-CLD18A2) stably expressing human CLD18A2, GraphPad Prism and Guava easyCyte™ HT System instrument, and the results are shown in FIG. 7.

| Molecule | binding to human CLD18A2 (human CLD18A2 [1]) | EC50 (human CLD18A2 [2]) [nM] |
| --- | --- | --- |
| 8E5: murine anti-CLD18A2 monoclonal antibody, VH SEQ ID NO:15, VL SEQ ID NO:13 (antibody, V domains shown) VH: DVQLQESGPDLVKPSQSLSLTCTVTGYSITSGYNWHWIRQFPGNKMEWMGYIHYTGSTNYNPSLRSRISITRDTSKNQFFLQLNSVTTDDTATYYCTRIYNGNSFPYWGQGTSVTVSS VL: DIVMTQSPSSLTVTPGEKVTMTCKSSQSLFNSGNQKNYLTWYQQRPGQPPKMLIYWASTRESGVPDRFTGSGSGTDFTLTISSVQAEDLAVFYCQNAYSFPYTFGGGTKLEIKR | specifically bound to human CLD18A2 | 49.2 |
| 4A11: murine anti-CLD18A2 monoclonal antibody, VH SEQ ID NO:11, VL SEQ ID NO:9 (antibody, V domains shown) VH: QIQLVQSGPELKKPGETVKISCKASGYTFTNYGMNWVKQAPGKGLKWMGWINTNTGEPTYAEEFKGRFAFSLETSASTAYLQINNLKNEDTATYFCARFSYGNSFAYWGQGTTVTVSS VL: DIVMTQSPSSLSVSAGEKVTMSCKSSQSLLNSGNQKNYLAWYQQKPGQPPKLLIYGASTRESGVPDRFTGSGSGTDFTLTISSVQAEDLAVYYCQNDHSYPLTFGAGTKLELKR | specifically bound to human CLD18A2 | – |
| 3E12: murine anti-CLD18A2 monoclonal antibody, VH SEQ ID NO:7, VL SEQ ID NO:5 (antibody, V domains shown) VH: QVQLQQSGPELVKPGALVKISCKASGYTFTSYDINWVKQRPGQGLEWIGWIYPGDGSTKYNEKFKGKATLTADKSSSTAYMQLSSLTSENSAVYFCARGGYRYDEAMDYWGQGTTVTVSS VL: QIVLTQSPAIMSASPGEKVTMTCSASSSISYMHWYQQKPGTSPKRWIYDTSKLASGVPARFSGSGSGTSYSLTISSMEAEDAATYYCHQRSSYPYTFGGGTKLEIKR | specifically bound to human CLD18A2 | – |
